Reference: US20050276757

What was measured:
[1] = molecular target: Flag-tagged Abi-1 expressed from pCMV-Flag-Abi1, Q8IZP0
[2] = molecular target: p120 catenin expressed from a transfected plasmid (exogenous p120, HA-tagged in Example 1)

Sequence of Flag-tagged Abi-1 expressed from pCMV-Flag-Abi1, Q8IZP0 (Q8IZP0 whole entry, looked up): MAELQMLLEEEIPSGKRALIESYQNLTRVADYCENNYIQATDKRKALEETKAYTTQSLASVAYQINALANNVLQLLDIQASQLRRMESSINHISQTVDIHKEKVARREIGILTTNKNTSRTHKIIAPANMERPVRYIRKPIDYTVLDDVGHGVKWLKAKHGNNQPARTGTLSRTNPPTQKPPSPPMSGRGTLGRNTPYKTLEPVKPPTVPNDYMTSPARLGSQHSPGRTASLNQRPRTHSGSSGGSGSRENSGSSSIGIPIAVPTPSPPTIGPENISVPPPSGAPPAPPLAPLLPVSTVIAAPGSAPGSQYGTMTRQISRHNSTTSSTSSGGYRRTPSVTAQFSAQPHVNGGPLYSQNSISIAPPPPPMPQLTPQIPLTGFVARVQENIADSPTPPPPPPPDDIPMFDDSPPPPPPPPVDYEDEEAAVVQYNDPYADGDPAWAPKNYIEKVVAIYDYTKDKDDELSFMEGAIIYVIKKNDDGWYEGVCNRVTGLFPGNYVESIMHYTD

| Protein | in vitro phosphorylation (32P-ATP, autoradiography) [1] | in vitro phosphorylation (32P-ATP, autoradiography) (Myelin Basic Protein) | in vitro phosphorylation (32P-ATP, autoradiography; gel mobility shift) [2] |
| --- | --- | --- | --- |
| kinase domain of ZC3 fused to GST (protein) MGDPAPARSLDDIDLSALRDPAGIFELVEVVGNGTYGQVYKGRHVKTGQLAAIKVMDVTEDEEEEIKQEINMLKKYSHHRNIATYYGAFIKKSPPGNDDQLWLVMEFCGAGSVTDLVKNTKGNALKEDCIAYICREILRGLAHLHAHKVIHRDIKGQNVLLTENAEVKLVDFGVSAQLDRTVGRRNTFIGTPYWMAPEVIACDENPDATYDYRSDIWSLGITAIEMAEGAPPLCDMHPMRALFLIPRNPPPRLKSKKWSKKFIDFIDTCLIKTYLSRPPTEQLLKFPFIRDQPTERQVRIQLKDHIDRSRKKRGEKEETE | A strongly phosphorylated band corresponding to Abi-1 appears in the sample containing immunoprecipitated Abi-1 and GST-ZC3KD | MBP is known to be a good in vitro substrate for ZC3 and is indeed strongly phosphorylated |  |
| purified GST-ZC1 kinase domain (protein) MANDSPAKSLVDIDLSSLRDPAGIFELVEVVGNGTYGQVYKGRHVKTGQLAAIKVMDVTEDEEEEIKLEINMLKKYSHHRNIATYYGAFIKKSPPGHDDQLWLVMEFCGAGSITDLVKNTKGNTLKEDWIAYISREILRGLAHLHIHHVIHRDIKGQNVLLTENAEVKLVDFGVSAQLDRTVGRRNTFIGTPYWMAPEVIACDENPDATYDYRSDLWSCGITAIEMAEGAPPLCDMHPMRALFLIPRNPPPRLKSKKWSKKFFSFIEGCLVKNYMQRPSTEQLLKHPFIRDQPNERQVRIQLKDHIDRTRKKRGEKDETEYEYSGSEE |  |  | added purified recombinant ZC1 enzyme induced phosphorylation of p120 |
